From publication PMC10786891, “Massively parallel profiling of RNA-targeting CRISPR-Cas13d”
Numbering of substitutions follows the chain as printed. In names and notes the source's numbering stands.

T1: EsCas13d, nuclease-dead (Eubacterium siraeum, UniProt B0MS50, R295A;H300A;R849A;H854A)
T1 sequence: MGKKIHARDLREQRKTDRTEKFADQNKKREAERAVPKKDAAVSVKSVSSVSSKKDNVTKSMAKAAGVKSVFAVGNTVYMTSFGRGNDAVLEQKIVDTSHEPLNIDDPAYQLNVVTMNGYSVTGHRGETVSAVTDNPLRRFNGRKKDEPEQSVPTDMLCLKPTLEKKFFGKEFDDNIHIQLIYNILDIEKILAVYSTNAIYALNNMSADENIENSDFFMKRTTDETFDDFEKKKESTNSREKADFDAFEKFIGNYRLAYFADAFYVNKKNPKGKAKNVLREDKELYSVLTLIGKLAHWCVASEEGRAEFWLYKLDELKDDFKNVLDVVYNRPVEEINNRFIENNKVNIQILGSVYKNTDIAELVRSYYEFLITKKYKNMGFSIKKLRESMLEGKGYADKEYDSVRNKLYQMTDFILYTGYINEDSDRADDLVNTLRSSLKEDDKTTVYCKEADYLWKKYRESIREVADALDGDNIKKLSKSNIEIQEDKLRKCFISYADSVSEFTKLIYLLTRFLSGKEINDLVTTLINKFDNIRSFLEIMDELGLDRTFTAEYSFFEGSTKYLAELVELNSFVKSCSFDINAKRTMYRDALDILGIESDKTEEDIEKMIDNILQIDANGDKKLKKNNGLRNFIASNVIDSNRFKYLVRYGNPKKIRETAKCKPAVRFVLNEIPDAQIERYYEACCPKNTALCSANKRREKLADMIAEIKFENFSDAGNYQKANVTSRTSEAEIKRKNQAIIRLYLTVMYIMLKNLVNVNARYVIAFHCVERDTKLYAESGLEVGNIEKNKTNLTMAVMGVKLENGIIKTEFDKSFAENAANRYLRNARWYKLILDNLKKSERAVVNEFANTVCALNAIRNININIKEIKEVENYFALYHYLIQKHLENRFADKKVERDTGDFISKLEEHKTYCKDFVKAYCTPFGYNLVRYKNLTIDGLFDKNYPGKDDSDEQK

B1: target 1 U3G,A18C (mixed)
RNA 1: CACCCGUGCAAAAAUGCAGGGGUCUAAAACUGAGCGGAUAACCUCUCUAUGG
RNA 2: GGGAAUGGAUCCACAUCUACGAAUUCGUACCAUCGAGAGGUUAUCCGCGCACCGAGAUCGGAAGAGCACACGU
B2: target 1 insC 3' of 13,insA 3' of 6 (mixed)
RNA 1: B1 RNA 1
RNA 2: GGGAAUGGAUCCACAUCUACGAAUUCGUACCAUAGAGAGCGUUAUCCAGCUCACCGAGAUCGGAAGAGCACACGU
B3: target 1 insG 3' of 19,insA 3' of 11 (mixed)
RNA 1: B1 RNA 1
RNA 2: GGGAAUGGAUCCACAUCUACGAAUUCGUACCAUGAGAGAGGUAUAUCCGCUCACCGAGAUCGGAAGAGCACACGU
B4: target 1 G13U,G15A (mixed)
RNA 1: B1 RNA 1
RNA 2: B1 RNA 2 with C34A, G37A, G39U, G49U
B5: target 2 MT 5'PFS CGG 3'PFS UGA (mixed)
RNA 1: CACCCGUGCAAAAUUGCAGGGGUCUAAAACCUUCUCCAAAUUGUUUCAUCCU
RNA 2: GGGAAUGGAUCCACAUCUACGAAUUCCGGAGGAUGAAACAAUUUGGAGAAGUGAAGAUCGGAAGAGCACACGU
B6: target 2 MT 5'PFS UGA 3'PFS AGA (mixed)
RNA 1: B5 RNA 1
RNA 2: B5 RNA 2 with C27U, G29A, U52A
B7: target 2 MT 5'PFS CUU 3'PFS AGG (mixed)
RNA 1: B5 RNA 1
RNA 2: B5 RNA 2 with G28U, G29U, U52A, A54G
B8: target 2 MT 5'PFS UAA 3'PFS UAC (mixed)
RNA 1: B5 RNA 1
RNA 2: B5 RNA 2 with C27U, G28A, G29A, G53A, A54C
B9: target 2 MT 5'PFS CUU 3'PFS AGU (mixed)
RNA 1: B5 RNA 1
RNA 2: B5 RNA 2 with G28U, G29U, U52A, A54U
B10: target 2 MT 5'PFS AAA 3'PFS AAA (mixed)
RNA 1: B5 RNA 1
RNA 2: B5 RNA 2 with C27A, G28A, G29A, U52A, G53A
B11: target 2 MT 5'PFS GUG 3'PFS AAU (mixed)
RNA 1: B5 RNA 1
RNA 2: B5 RNA 2 with C27G, G28U, U52A, G53A, A54U
B12: target 2 MT 5'PFS AAG 3'PFS CUG (mixed)
RNA 1: B5 RNA 1
RNA 2: B5 RNA 2 with C27A, G28A, U52C, G53U, A54G
B13: target 2 MT 5'PFS UCU 3'PFS UCC (mixed)
RNA 1: B5 RNA 1
RNA 2: B5 RNA 2 with C27U, G28C, G29U, G53C, A54C
B14: target 2 MT 5'PFS AAG 3'PFS CUA (mixed)
RNA 1: B5 RNA 1
RNA 2: B5 RNA 2 with C27A, G28A, U52C, G53U
B15: target 2 MT 5'PFS GAG 3'PFS CCA (mixed)
RNA 1: B5 RNA 1
RNA 2: B5 RNA 2 with C27G, G28A, U52C, G53C
B16: target 2 MT 5'PFS CGG 3'PFS UGU (mixed)
RNA 1: B5 RNA 1
RNA 2: B5 RNA 2 with A54U
B17: target 2 MT 5'PFS CUU 3'PFS AGC (mixed)
RNA 1: B5 RNA 1
RNA 2: B5 RNA 2 with G28U, G29U, U52A, A54C
B18: target 2 MT 5'PFS GUG 3'PFS CCA (mixed)
RNA 1: B5 RNA 1
RNA 2: B5 RNA 2 with C27G, G28U, U52C, G53C
B19: target 2 MT 5'PFS GUG 3'PFS AAC (mixed)
RNA 1: B5 RNA 1
RNA 2: B5 RNA 2 with C27G, G28U, U52A, G53A, A54C
B20: target 2 MT 5'PFS ACG 3'PFS UAG (mixed)
RNA 1: B5 RNA 1
RNA 2: B5 RNA 2 with C27A, G28C, G53A, A54G
B21: target 2 MT 5'PFS GUG 3'PFS AAA (mixed)
RNA 1: B5 RNA 1
RNA 2: B5 RNA 2 with C27G, G28U, U52A, G53A
B22: target 2 MT 5'PFS AGU 3'PFS AAU (mixed)
RNA 1: B5 RNA 1
RNA 2: B5 RNA 2 with C27A, G29U, U52A, G53A, A54U
B23: target 2 MT 5'PFS GUG 3'PFS CCG (mixed)
RNA 1: B5 RNA 1
RNA 2: B5 RNA 2 with C27G, G28U, U52C, G53C, A54G
B24: target 2 MT 5'PFS AAG 3'PFS CUC (mixed)
RNA 1: B5 RNA 1
RNA 2: B5 RNA 2 with C27A, G28A, U52C, G53U, A54C
B25: target 2 MT 5'PFS AGU 3'PFS CCG (mixed)
RNA 1: B5 RNA 1
RNA 2: B5 RNA 2 with C27A, G29U, U52C, G53C, A54G
B26: target 2 MT 5'PFS CUU 3'PFS CGG (mixed)
RNA 1: B5 RNA 1
RNA 2: B5 RNA 2 with G28U, G29U, U52C, A54G
B27: target 2 MT 5'PFS GAG 3'PFS CCU (mixed)
RNA 1: B5 RNA 1
RNA 2: B5 RNA 2 with C27G, G28A, U52C, G53C, A54U
B28: target 2 MT 5'PFS CUU 3'PFS AGA (mixed)
RNA 1: B5 RNA 1
RNA 2: B5 RNA 2 with G28U, G29U, U52A
B29: target 2 MT 5'PFS AGU 3'PFS CCA (mixed)
RNA 1: B5 RNA 1
RNA 2: B5 RNA 2 with C27A, G29U, U52C, G53C
B30: target 2 MT 5'PFS UAA 3'PFS UAA (mixed)
RNA 1: B5 RNA 1
RNA 2: B5 RNA 2 with C27U, G28A, G29A, G53A
B31: target 2 MT 5'PFS CUU 3'PFS CGC (mixed)
RNA 1: B5 RNA 1
RNA 2: B5 RNA 2 with G28U, G29U, U52C, A54C
B32: target 2 MT 5'PFS CUU 3'PFS CGU (mixed)
RNA 1: B5 RNA 1
RNA 2: B5 RNA 2 with G28U, G29U, U52C, A54U
B33: target 2 MT 5'PFS GAG 3'PFS CCG (mixed)
RNA 1: B5 RNA 1
RNA 2: B5 RNA 2 with C27G, G28A, U52C, G53C, A54G
B34: target 2 MT 5'PFS UAU 3'PFS UCG (mixed)
RNA 1: B5 RNA 1
RNA 2: B5 RNA 2 with C27U, G28A, G29U, G53C, A54G
B35: target 2 MT 5'PFS UAU 3'PFS UCA (mixed)
RNA 1: B5 RNA 1
RNA 2: B5 RNA 2 with C27U, G28A, G29U, G53C
B36: target 2 MT 5'PFS GUG 3'PFS AAG (mixed)
RNA 1: B5 RNA 1
RNA 2: B5 RNA 2 with C27G, G28U, U52A, G53A, A54G
B37: target 2 MT 5'PFS CUU 3'PFS CGA (mixed)
RNA 1: B5 RNA 1
RNA 2: B5 RNA 2 with G28U, G29U, U52C
B38: target 2 MT 5'PFS AGU 3'PFS AAG (mixed)
RNA 1: B5 RNA 1
RNA 2: B5 RNA 2 with C27A, G29U, U52A, G53A, A54G

Molecular target: T1, EsCas13d, nuclease-dead
Test: crRNA (strand 1, pre-loaded); Mg2+; 40 mM Tris-HCl pH 7.5, 150 mM NaCl, 6 mM MgCl2, 1 mM DTT, 0.1% Tween-20, 0.2 mg/ml BSA; 25 C; 10 min per concentration, then washed
Settings: tags: His6-TwinStrep-SUMO cleaved; N-terminal SNAP kept (SNAP-Surface 488); label: 3' end held by stalled T7 RNA polymerase

Binder | Kd
B1 | 52 ± 4 nM
B2 | 11.7 ± 0.9 nM
B3 | 89 ± 16 nM
B4 | 22 ± 4 nM
B5 | 6.9 ± 1.3 nM
B6 | 5.4 ± 0.5 nM
B7 | 2.4 ± 0.4 nM
B8 | 7.1 ± 1.6 nM
B9 | 3.1 ± 0.4 nM
B10 | 4.9 ± 1.3 nM
B11 | 8.6 ± 1 nM
B12 | 4.9 ± 0.7 nM
B13 | 7.2 ± 0.7 nM
B14 | 4.4 ± 0.6 nM
B15 | 17.2 ± 2.6 nM
B16 | 9.3 ± 1.6 nM
B17 | 2.28 ± 0.22 nM
B18 | 21.2 ± 1.8 nM
B19 | 10.5 ± 1.6 nM

Binder | Kd
B20 | 4.6 ± 1.1 nM
B21 | 9.7 ± 1.4 nM
B22 | 7.6 ± 1 nM
B23 | 13.6 ± 0.9 nM
B24 | 10 ± 1.6 nM
B25 | 10.2 ± 0.9 nM
B26 | 2.9 ± 0.4 nM
B27 | ~130 nM
B28 | 2.9 ± 0.4 nM
B29 | 36 ± 11 nM
B30 | 4.8 ± 1.3 nM
B31 | 5 ± 0.4 nM
B32 | 3.8 ± 0.5 nM
B33 | 6.77 ± 0.3 nM
B34 | 27.2 ± 3.2 nM
B35 | 24 ± 5 nM
B36 | 12.4 ± 1.8 nM
B37 | 3.4 ± 0.4 nM
B38 | 11 ± 2.4 nM
